Experiments:
[1] = target: HLA-A*01:01; test: IEDB peptide-MHC binding, purified MHC/competitive/radioactivity; filed as Kd, often an IC50 or EC50 that approximates it; ≥ and ≤ were set here for values at or beyond the usual limits of such assays
[2] = target: HLA-A*26:01; test: as above
[3] = target: HLA-A*29:02; test: as above
[4] = target: HLA-A*30:01; test: as above
[5] = target: HLA-A*30:02; test: as above
[6] = target: HLA-A*32:01; test: as above
[7] = target: HLA-B*40:01; test: as above
[8] = target: HLA-B*51:01; test: as above
[9] = target: HLA-A*02:01; test: IEDB peptide-MHC binding, purified MHC/competitive/fluorescence; filed as Kd, often an IC50 or EC50 that approximates it; ≥ and ≤ were set here for values at or beyond the usual limits of such assays
[10] = target: HLA-B*44:02; test: IEDB peptide-MHC binding, purified MHC/competitive/radioactivity; filed as Kd, often an IC50 or EC50 that approximates it; ≥ and ≤ were set here for values at or beyond the usual limits of such assays; conditions: source organism: Dengue virus 3 Martinique/1243/1999
[11] = target: HLA-B*44:03; test: as above; conditions: source organism: Dengue virus 3 Martinique/1243/1999
[12] = target: HLA-A*23:01; test: as above
[13] = target: HLA-A*24:02; test: as above
[14] = target: HLA-A*01:01; test: IEDB peptide-MHC binding, purified MHC/direct/fluorescence; filed as Kd, often an IC50 or EC50 that approximates it; ≥ and ≤ were set here for values at or beyond the usual limits of such assays; conditions: source organism: Yellow fever virus
[15] = target: HLA-A*02:01; test: as above; conditions: source organism: Yellow fever virus
[16] = target: HLA-A*03:01; test: as above; conditions: source organism: Yellow fever virus
[17] = target: HLA-A*69:01; test: as above; conditions: source organism: Yellow fever virus
[18] = target: HLA-B*07:02; test: as above; conditions: source organism: Yellow fever virus
[19] = target: HLA-B*15:01; test: as above; conditions: source organism: Yellow fever virus
[20] = target: HLA-B*40:01; test: as above; conditions: source organism: Yellow fever virus
[21] = target: HLA-B*44:02; test: as above; conditions: source organism: Yellow fever virus
[22] = target: HLA-B*46:01; test: as above; conditions: source organism: Yellow fever virus
[23] = target: HLA-B*48:01; test: as above
[24] = target: HLA-B*57:01; test: as above; conditions: source organism: Yellow fever virus
[25] = target: HLA-B*58:01; test: as above; conditions: source organism: Yellow fever virus
[26] = target: HLA-A*03:01; test: IEDB peptide-MHC binding, purified MHC/competitive/radioactivity; filed as Kd, often an IC50 or EC50 that approximates it; ≥ and ≤ were set here for values at or beyond the usual limits of such assays; conditions: source organism: Triticum aestivum
[27] = target: HLA-A*11:01; test: as above; conditions: source organism: Triticum aestivum
[28] = target: HLA-A*31:01; test: as above; conditions: source organism: Triticum aestivum
[29] = target: HLA-A*33:01; test: as above; conditions: source organism: Triticum aestivum
[30] = target: HLA-A*68:01; test: as above; conditions: source organism: Triticum aestivum
[31] = target: HLA-B*08:01; test: as above; conditions: source organism: Vaccinia virus WR
[32] = target: HLA-B*27:05; test: IEDB peptide-MHC binding, purified MHC/direct/fluorescence; filed as Kd, often an IC50 or EC50 that approximates it; ≥ and ≤ were set here for values at or beyond the usual limits of such assays; conditions: source organism: Orthohantavirus hantanense
[33] = source organism: Mammarenavirus brazilense
[34] = source organism: Dengue virus 1 Brazil/97-11/1997
[35] = source organism: Dengue virus 2 Jamaica/1409/1983
[36] = source organism: Dengue virus 3 Martinique/1243/1999
[37] = source organism: Vaccinia virus WR
[38] = source organism: Vaccinia virus Copenhagen
[39] = source organism: Lymphocytic choriomeningitis virus (strain Armstrong)
[40] = source organism: Mammarenavirus whitewaterense
[41] = source organism: Yellow fever virus
[42] = source organism: SARS coronavirus Tor2
[43] = source organism: Mammarenavirus guanaritoense
[44] = source organism: Triticum aestivum
[45] = source organism: Mammarenavirus lassaense
[46] = source organism: Mammarenavirus choriomeningitidis

## ELLNTPYCNY
[1]; [33]
  Kd: 12.3 µM
[2]; [33]
  Kd: 0.275 µM
[3]; [33]
  Kd: 0.837 µM
[4]; [33]
  Kd: ≥ 70.4 µM
[5]; [33]
  Kd: 0.206 µM
[6]; [33]
  Kd: ≥ 39.9 µM

## RMLLNRFTM
[6]; [34]
  Kd: 0.0194 µM

## ITANPIVTD
[6]; [34]
  Kd: 2.42 µM

## EEEEQTLTIL
[7]; [35]
  Kd: 0.0104 µM

## MAFIAFLRFL
[8]; [34]
  Kd: 16.1 µM

## LLFLEDVEP
[9]; source organism: Horsepox virus
  Kd: ≥ 20 µM

## LPLFIFSLK
[8]; [36]
  Kd: 13.1 µM

## MTNTMRNAI
[6]; [37]
  Kd: 0.106 µM

## VLEDVQAAGI
[9]; [38]
  Kd: 0.232 µM

## KVNTTIARY
[1]; [39]
  Kd: 1.63 µM
[2]; [39]
  Kd: 7.46 µM
[3]; [39]
  Kd: 0.1 µM
[4]; [39]
  Kd: 0.934 µM
[5]; [39]
  Kd: 0.00593 µM
[6]; [39]
  Kd: 0.634 µM

## LEFFMMVLL
[6]; [36]
  Kd: 2.04 µM
[7]; [36]
  Kd: 0.0131 µM
[10]
  Kd: 10.1 µM
[11]
  Kd: 2.64 µM

## MLVSQALNSV
[9]; [38]
  Kd: 0.0034 µM

## RCWLTKNGSY
[1]; [40]
  Kd: 18.9 µM
[12]; [40]
  Kd: ≥ 70 µM
[13]; [40]
  Kd: ≥ 70.3 µM
[2]; [40]
  Kd: ≥ 23.3 µM
[3]; [40]
  Kd: 8.92 µM
[4]; [40]
  Kd: 3.79 µM
[5]; [40]
  Kd: 0.0575 µM
[6]; [40]
  Kd: ≥ 69.9 µM

## ERWFVRNPF
[14]
  Kd: ≥ 20 µM
[15]
  Kd: ≥ 20 µM
[16]
  Kd: ≥ 20 µM
[17]
  Kd: ≥ 20 µM
[18]
  Kd: ≥ 20 µM
[19]
  Kd: ≥ 20 µM
[20]
  Kd: ≥ 20 µM
[21]
  Kd: ≥ 20 µM
[22]
  Kd: ≥ 20 µM
[23]; [41]
  Kd: ≥ 20 µM
[24]
  Kd: ≥ 20 µM
[25]
  Kd: ≥ 20 µM

## GYLKPTTFML
[1]; [42]
  Kd: ≥ 28.4 µM
[12]; [42]
  Kd: 0.0336 µM
[13]; [42]
  Kd: 0.103 µM
[2]; [42]
  Kd: ≥ 69.7 µM
[3]; [42]
  Kd: 1.02 µM
[5]; [42]
  Kd: 5.13 µM

## AQAELDAAF
[23]; source organism: Salmonella enterica subsp. enterica serovar Paratyphi A str. ATCC 9150
  Kd: 0.696 µM

## CSKILDLCY
[1]; [43]
  Kd: 0.0531 µM
[2]; [43]
  Kd: ≥ 54.6 µM
[3]; [43]
  Kd: 3.62 µM
[4]; [43]
  Kd: 14.9 µM
[5]; [43]
  Kd: 0.664 µM
[6]; [43]
  Kd: ≥ 50.9 µM

## QMYKTPTLKY
[1]; [42]
  Kd: 8.92 µM
[12]; [42]
  Kd: ≥ 70 µM
[13]; [42]
  Kd: ≥ 70.3 µM
[2]; [42]
  Kd: 3.12 µM
[3]; [42]
  Kd: 0.00681 µM
[5]; [42]
  Kd: 0.0552 µM

## LEFFMMVLLI
[7]; [36]
  Kd: 12.2 µM
[11]
  Kd: 9.21 µM

## SFQQPQQQY
[1]; [44]
  Kd: ≥ 68.9 µM
[26]
  Kd: ≥ 78 µM
[27]
  Kd: ≥ 77.9 µM
[12]; [44]
  Kd: ≥ 77.8 µM
[13]; [44]
  Kd: ≥ 77.6 µM
[2]; [44]
  Kd: ≥ 43.7 µM
[3]; [44]
  Kd: 0.0841 µM
[5]; [44]
  Kd: ≥ 63.2 µM
[28]
  Kd: ≥ 77.9 µM
[29]
  Kd: ≥ 77.7 µM
[30]
  Kd: ≥ 77.7 µM

## SRAWNVWEVE
[6]; [36]
  Kd: ≥ 26.5 µM

## SMSEIINNI
[6]; [37]
  Kd: 0.245 µM

## KTIYLLSLF
[6]; [37]
  Kd: 0.0103 µM

## IRWYISLSF
[6]; [38]
  Kd: 1.17 µM

## PEDPVEVALY
[1]; [45]
  Kd: ≥ 41 µM
[12]; [45]
  Kd: ≥ 70 µM
[13]; [45]
  Kd: ≥ 70.3 µM
[2]; [45]
  Kd: ≥ 69.7 µM
[3]; [45]
  Kd: ≥ 43.4 µM
[5]; [45]
  Kd: 1.43 µM

## MLMNHVANF
[6]; [37]
  Kd: 0.00828 µM
[31]
  Kd: 0.00333 µM

## DHEFVDEFY
[1]; [42]
  Kd: 0.262 µM
[12]; [42]
  Kd: ≥ 66.2 µM
[13]; [42]
  Kd: ≥ 77.6 µM
[2]; [42]
  Kd: 13.9 µM
[3]; [42]
  Kd: 1.17 µM
[5]; [42]
  Kd: ≥ 22.5 µM

## TEEIAVQNWL
[7]; [35]
  Kd: 0.104 µM

## SRLTYQWHK
[23]; [41]
  Kd: ≥ 20 µM

## TSQKSIVAY
[1]; [42]
  Kd: 1.18 µM
[12]; [42]
  Kd: ≥ 77.8 µM
[13]; [42]
  Kd: ≥ 77.6 µM
[2]; [42]
  Kd: 8.25 µM
[3]; [42]
  Kd: 2.08 µM
[5]; [42]
  Kd: 0.0254 µM

## VTERIFREY
[1]; [46]
  Kd: 0.00862 µM
[2]; [46]
  Kd: ≥ 44.9 µM
[3]; [46]
  Kd: 8.69 µM
[4]; [46]
  Kd: 4.01 µM
[5]; [46]
  Kd: 0.876 µM
[6]; [46]
  Kd: 12.9 µM

## SWLDFDEKLV
[1]; [43]
  Kd: 6.1 µM
[12]; [43]
  Kd: 0.32 µM
[13]; [43]
  Kd: 14 µM
[2]; [43]
  Kd: ≥ 69.7 µM
[3]; [43]
  Kd: ≥ 71.4 µM
[5]; [43]
  Kd: 4.94 µM

## WCEFVDFSV
[1]; [43]
  Kd: 0.341 µM
[12]; [43]
  Kd: ≥ 53.3 µM
[13]; [43]
  Kd: ≥ 77.5 µM
[2]; [43]
  Kd: ≥ 77.9 µM
[3]; [43]
  Kd: 2.47 µM
[5]; [43]
  Kd: 7.9 µM

## AMLNGLIYV
[9]; source organism: Variola virus
  Kd: 0.0013 µM

## DEALRGFLLY
[1]; [33]
  Kd: 14.8 µM
[12]; [33]
  Kd: 5.86 µM
[13]; [33]
  Kd: ≥ 37.5 µM
[2]; [33]
  Kd: ≥ 69.7 µM
[3]; [33]
  Kd: ≥ 59.1 µM
[5]; [33]
  Kd: ≥ 69.7 µM

## VGRAWENTI
[1]; [45]
  Kd: ≥ 26.7 µM
[12]; [45]
  Kd: 2.95 µM
[13]; [45]
  Kd: 8.77 µM
[2]; [45]
  Kd: ≥ 77.9 µM
[3]; [45]
  Kd: ≥ 78.9 µM
[5]; [45]
  Kd: 0.0991 µM

## VYIGDPAQL
[1]; [42]
  Kd: ≥ 78.1 µM
[12]; [42]
  Kd: 1.18 µM
[13]; [42]
  Kd: 0.107 µM
[2]; [42]
  Kd: ≥ 77.9 µM
[3]; [42]
  Kd: ≥ 22.8 µM
[5]; [42]
  Kd: ≥ 78.9 µM

## YRLRGEARK
[23]; source organism: Dengue virus 1 Singapore/S275/1990
  Kd: ≥ 20 µM

## DDVARAWSL
[23]; source organism: Mycobacterium tuberculosis str. Haarlem
  Kd: ≥ 20 µM

## SETQHGTIL
[7]; [36]
  Kd: 0.00395 µM
[11]
  Kd: 0.127 µM

## AQDFQSLTI
[6]; [38]
  Kd: 0.0676 µM

## KRIAPMLYK
[32]
  Kd: 0.0407 µM
[23]; source organism: Orthohantavirus hantanense
  Kd: ≥ 20 µM

## AQVTCLKFL
[23]; source organism: Cryptosporidium parvum Iowa II
  Kd: 1.67 µM

## GSAKLQWFVE
[6]; [36]
  Kd: ≥ 69.9 µM

Source: the Immune Epitope Database (IEDB)
